Reference: patent US20130011378A1, “Stable formulations of a hyaluronan-degrading enzyme” (priority 2011, published 2013)

Assay: RP-HPLC: insulin apparent solubility / percent recovery
Conditions: for Solubility of Lispro, % remaining of the original concentration: 7 days at 2-8° C.
How it was run: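 Vial samples withdrawn at each time point, centrifuged, held at 4 °C, run in duplicate by RP-HPLC. Apparent solubility = combined insulin main and desamido peak areas as percent versus standards/initial formulation; purity = main insulin peak as percent of all insulin species.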

insulin Lispro: insulin analog LysB28, ProB29; SEQ ID NO:103 and 148
Solubility of Lispro, % remaining of the original concentration (0.2% methylparaben + […] m-cresol, pH 6.6, NaCl 50 mM): 42.0% | Solubility of Lispro, % remaining of the original concentration (0.2% methylparaben + […] m-cresol, pH 6.6, NaCl 80 mM): 28.2% | Solubility of Lispro, % remaining of the original concentration (0.2% methylparaben + […] m-cresol, pH 6.6, NaCl 110 mM): 24.1% | Solubility of Lispro, % remaining of the original concentration (0.2% methylparaben + […] m-cresol, pH 6.6, NaCl 140 mM): 25.9% | Solubility of Lispro, % remaining of the original concentration (0.2% methylparaben + […] m-cresol, pH 6.8, NaCl 50 mM): 82.3% | Solubility of Lispro, % remaining of the original concentration (0.2% methylparaben + […] m-cresol, pH 6.8, NaCl 80 mM): 62.6% | Solubility of Lispro, % remaining of the original concentration (0.2% methylparaben + […] m-cresol, pH 6.8, NaCl 110 mM): 47.8% | Solubility of Lispro, % remaining of the original concentration (0.2% methylparaben + […] m-cresol, pH 6.8, NaCl 140 mM): 42.0% | Solubility of Lispro, % remaining of the original concentration (0.2% methylparaben + […] m-cresol, pH 7.0, NaCl 50 mM): 95.3% | Solubility of Lispro, % remaining of the original concentration (0.2% methylparaben + […] m-cresol, pH 7.0, NaCl 80 mM): 98.1% | Solubility of Lispro, % remaining of the original concentration (0.2% methylparaben + […] m-cresol, pH 7.0, NaCl 110 mM): 94.1% | Solubility of Lispro, % remaining of the original concentration (0.2% methylparaben + […] m-cresol, pH 7.0, NaCl 140 mM): 65.6% | Solubility of Lispro, % remaining of the original concentration (0.2% methylparaben + […] m-cresol, pH 7.2, NaCl 50 mM): 95.7% | Solubility of Lispro, % remaining of the original concentration (0.2% methylparaben + […] m-cresol, pH 7.2, NaCl 80 mM): 97.9% | Solubility of Lispro, % remaining of the original concentration (0.2% methylparaben + […] m-cresol, pH 7.2, NaCl 110 mM): 99.6% | Solubility of Lispro, % remaining of the original concentration (0.2% methylparaben + […] m-cresol, pH 7.2, NaCl 140 mM): 98.0% | Solubility of Lispro, % remaining of the original concentration (0.2% methylparaben + […] m-cresol, pH 7.4, NaCl 50 mM): 95.6% | Solubility of Lispro, % remaining of the original concentration (0.2% methylparaben + […] m-cresol, pH 7.4, NaCl 80 mM): 98.2% | Solubility of Lispro, % remaining of the original concentration (0.2% methylparaben + […] m-cresol, pH 7.4, NaCl 110 mM): 99.9% | Solubility of Lispro, % remaining of the original concentration (0.2% methylparaben + […] m-cresol, pH 7.4, NaCl 140 mM): 98.5% | Solubility of Lispro, % remaining of the original concentration (0.2% methylparaben + […] m-cresol, pH 7.6, NaCl 50 mM): 95.7% | Solubility of Lispro, % remaining of the original concentration (0.2% methylparaben + […] m-cresol, pH 7.6, NaCl 80 mM): 98.3% | Solubility of Lispro, % remaining of the original concentration (0.2% methylparaben + […] m-cresol, pH 7.6, NaCl 110 mM): 100.2% | Solubility of Lispro, % remaining of the original concentration (0.2% methylparaben + […] m-cresol, pH 7.6, NaCl 140 mM): 98.8% | Solubility of Lispro, % remaining of the original concentration (0.2% phenol + […] m-cresol, pH 6.6, NaCl 50 mM): 52.8% | Solubility of Lispro, % remaining of the original concentration (0.2% phenol + […] m-cresol, pH 6.6, NaCl 80 mM): 32.8% | Solubility of Lispro, % remaining of the original concentration (0.2% phenol + […] m-cresol, pH 6.6, NaCl 110 mM): 26.0% | Solubility of Lispro, % remaining of the original concentration (0.2% phenol + […] m-cresol, pH 6.8, NaCl 50 mM): 91.4% | Solubility of Lispro, % remaining of the original concentration (0.2% phenol + […] m-cresol, pH 6.8, NaCl 80 mM): 65.1% | Solubility of Lispro, % remaining of the original concentration (0.2% phenol + […] m-cresol, pH 6.8, NaCl 110 mM): 44.9% | Solubility of Lispro, % remaining of the original concentration (0.2% phenol + […] m-cresol, pH 6.8, NaCl 140 mM): 40.4% | Solubility of Lispro, % remaining of the original concentration (0.2% phenol + […] m-cresol, pH 7.0, NaCl 50 mM): 97.4% | Solubility of Lispro, % remaining of the original concentration (0.2% phenol + […] m-cresol, pH 7.0, NaCl 80 mM): 95.5% | Solubility of Lispro, % remaining of the original concentration (0.2% phenol + […] m-cresol, pH 7.0, NaCl 110 mM): 75.2% | Solubility of Lispro, % remaining of the original concentration (0.2% phenol + […] m-cresol, pH 7.0, NaCl 140 mM): 65.3% | Solubility of Lispro, % remaining of the original concentration (0.2% phenol + […] m-cresol, pH 7.2, NaCl 50 mM): 97.6% | Solubility of Lispro, % remaining of the original concentration (0.2% phenol + […] m-cresol, pH 7.2, NaCl 80 mM): 97.4% | Solubility of Lispro, % remaining of the original concentration (0.2% phenol + […] m-cresol, pH 7.2, NaCl 110 mM): 95.2% | Solubility of Lispro, % remaining of the original concentration (0.2% phenol + […] m-cresol, pH 7.2, NaCl 140 mM): 90.8% | Solubility of Lispro, % remaining of the original concentration (0.2% phenol + […] m-cresol, pH 7.4, NaCl 50 mM): 97.7% | Solubility of Lispro, % remaining of the original concentration (0.2% phenol + […] m-cresol, pH 7.4, NaCl 80 mM): 97.6% | Solubility of Lispro, % remaining of the original concentration (0.2% phenol + […] m-cresol, pH 7.4, NaCl 110 mM): 97.0% | Solubility of Lispro, % remaining of the original concentration (0.2% phenol + […] m-cresol, pH 7.4, NaCl 140 mM): 96.9% | Solubility of Lispro, % remaining of the original concentration (0.2% phenol + […] m-cresol, pH 7.6, NaCl 50 mM): 97.5% | Solubility of Lispro, % remaining of the original concentration (0.2% phenol + […] m-cresol, pH 7.6, NaCl 80 mM): 97.7% | Solubility of Lispro, % remaining of the original concentration (0.2% phenol + […] m-cresol, pH 7.6, NaCl 110 mM): 97.3% | Solubility of Lispro, % remaining of the original concentration (0.2% phenol + […] m-cresol, pH 7.6, NaCl 140 mM): 96.8% | time insulin Lispro stable (soluble) (2-8° C., pH 7.0, 50 mM NaCl): 5 months | Solubility (2-8° C., pH 7.0, after 1 week at 80, 110 or 140 mM NaCl): below 65% | time insulin Lispro stable (soluble) (2-8° C., pH 7.6, 140 mM NaCl): 2 weeks | time insulin Lispro stable (soluble) (2-8° C., pH 7.6, 50 and 80 mM NaCl, […] m-cresol, […] phenol): at least 12 months | Solubility of Lispro, % remaining of the original concentration ([…] phenol + […] m-cresol, pH 6.6, NaCl 50 mM): 60.3% | Solubility of Lispro, % remaining of the original concentration ([…] phenol + […] m-cresol, pH 6.6, NaCl 80 mM): 43.3% | Solubility of Lispro, % remaining of the original concentration ([…] phenol + […] m-cresol, pH 6.6, NaCl 110 mM): 24.2% | Solubility of Lispro, % remaining of the original concentration ([…] phenol + […] m-cresol, pH 6.6, NaCl 140 mM): 27.7% | Solubility of Lispro, % remaining of the original concentration ([…] phenol + […] m-cresol, pH 6.8, NaCl 50 mM): 93.6% | Solubility of Lispro, % remaining of the original concentration ([…] phenol + […] m-cresol, pH 6.8, NaCl 80 mM): 60.8% | Solubility of Lispro, % remaining of the original concentration ([…] phenol + […] m-cresol, pH 6.8, NaCl 110 mM): 44.9% | Solubility of Lispro, % remaining of the original concentration ([…] phenol + […] m-cresol, pH 6.8, NaCl 140 mM): 35.9% | Solubility of Lispro, % remaining of the original concentration ([…] phenol + […] m-cresol, pH 7.0, NaCl 50 mM): 98.7% | Solubility of Lispro, % remaining of the original concentration ([…] phenol + […] m-cresol, pH 7.0, NaCl 80 mM): 96.4% | Solubility of Lispro, % remaining of the original concentration ([…] phenol + […] m-cresol, pH 7.0, NaCl 110 mM): 77.0% | Solubility of Lispro, % remaining of the original concentration ([…] phenol + […] m-cresol, pH 7.0, NaCl 140 mM): 61.2% | Solubility of Lispro, % remaining of the original concentration ([…] phenol + […] m-cresol, pH 7.2, NaCl 50 mM): 100.5% | Solubility of Lispro, % remaining of the original concentration ([…] phenol + […] m-cresol, pH 7.2, NaCl 80 mM): 99.2% | Solubility of Lispro, % remaining of the original concentration ([…] phenol + […] m-cresol, pH 7.2, NaCl 110 mM): 97.3% | Solubility of Lispro, % remaining of the original concentration ([…] phenol + […] m-cresol, pH 7.2, NaCl 140 mM): 93.1% | Solubility of Lispro, % remaining of the original concentration ([…] phenol + […] m-cresol, pH 7.4, NaCl 50 mM): 100.8% | Solubility of Lispro, % remaining of the original concentration ([…] phenol + […] m-cresol, pH 7.4, NaCl 80 mM): 101.8% | Solubility of Lispro, % remaining of the original concentration ([…] phenol + […] m-cresol, pH 7.4, NaCl 110 mM): 100.7% | Solubility of Lispro, % remaining of the original concentration ([…] phenol + […] m-cresol, pH 7.4, NaCl 140 mM): 98.4% | Solubility of Lispro, % remaining of the original concentration ([…] phenol + […] m-cresol, pH 7.6, NaCl 50 mM): 100.9% | Solubility of Lispro, % remaining of the original concentration ([…] phenol + […] m-cresol, pH 7.6, NaCl 80 mM): 102.1% | Solubility of Lispro, % remaining of the original concentration ([…] phenol + […] m-cresol, pH 7.6, NaCl 110 mM): 101.6% | Solubility of Lispro, % remaining of the original concentration ([…] phenol + […] m-cresol, pH 7.6, NaCl 140 mM): 101.3%
